What was measured:
[1] = biological target: full-length FLAG-tagged STIM1 purified from insect cells (human, UniProt Q13586 23-685); assay: pull-down
[2] = biological target: full-length FLAG-tagged Orai1 purified from insect cells (human, UniProt Q96D31 1-301); assay: pull-down
full-length FLAG-tagged Orai1 purified from insect cells, sequence (Q96D31 whole entry): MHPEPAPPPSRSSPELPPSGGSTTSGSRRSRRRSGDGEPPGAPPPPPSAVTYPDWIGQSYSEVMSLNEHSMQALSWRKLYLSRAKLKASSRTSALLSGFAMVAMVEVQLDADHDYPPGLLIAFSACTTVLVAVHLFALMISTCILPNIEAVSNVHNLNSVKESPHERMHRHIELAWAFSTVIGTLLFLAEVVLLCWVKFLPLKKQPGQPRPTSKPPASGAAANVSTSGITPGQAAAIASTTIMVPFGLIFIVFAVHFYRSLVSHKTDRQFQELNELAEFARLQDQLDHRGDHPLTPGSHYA

full-length FLAG-tagged STIM1 purified from insect cells, sequence (Q13586 23-685): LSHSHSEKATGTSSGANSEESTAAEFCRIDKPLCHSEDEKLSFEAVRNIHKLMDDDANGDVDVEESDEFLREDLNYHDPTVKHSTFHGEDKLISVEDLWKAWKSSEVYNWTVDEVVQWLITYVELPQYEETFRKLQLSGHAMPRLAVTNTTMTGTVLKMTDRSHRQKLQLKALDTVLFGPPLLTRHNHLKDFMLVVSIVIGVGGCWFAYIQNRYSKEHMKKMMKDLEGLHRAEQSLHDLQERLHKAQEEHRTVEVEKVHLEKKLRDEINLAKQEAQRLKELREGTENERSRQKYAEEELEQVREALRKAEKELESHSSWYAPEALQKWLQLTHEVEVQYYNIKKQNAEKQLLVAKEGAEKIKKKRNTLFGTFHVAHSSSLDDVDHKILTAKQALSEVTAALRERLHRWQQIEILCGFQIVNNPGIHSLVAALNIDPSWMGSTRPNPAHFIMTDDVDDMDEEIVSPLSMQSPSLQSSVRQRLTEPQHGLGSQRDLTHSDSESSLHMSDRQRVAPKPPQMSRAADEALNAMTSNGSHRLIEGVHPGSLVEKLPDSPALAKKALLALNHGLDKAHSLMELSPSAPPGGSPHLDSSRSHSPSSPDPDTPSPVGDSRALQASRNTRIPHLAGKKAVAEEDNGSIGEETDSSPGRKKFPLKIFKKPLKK

binding result [1]: binds
binding result [2]: binds
B1: GST-fused STIM1 serine/threonine rich sequence (S/T) (domain or fragment)
chain: SSLDDVDHKILTAKQALSEVTAALRERLHRWQQIEILCGFQIVNNPGIHSLVAALNIDPSWMGSTRPNPAHFIMTDDVDDMDEEIVSPLSMQSPSLQSSVRQRLTEPQHGLGSQRDLTHSDSESSLHMSDRQRVAPKPPQMSRAADEALNAMTSNGSHRLIEGVHPGSLVEKLPDSPALAKKALLALNHGLDKAHSLMELS

— article PMC2875865 (Nature cell biology, 2010)
